Laboratory results reported in US20250179204A1.

Key:
[1] = biological target: recombinant mouse GITR (plate-bound) (mouse) (UniProt O35714); assay: ELISA, plate-bound recombinant mouse GITR, absorbance 450 nm against log(conc. ug/ml)
huFcγRIIIA F158 (human) = huFcγRIIIA F158 (human) (UniProt P08637); assay: SPR, Biacore T200
huFcγRIIA R131 (human) = huFcγRIIA R131 (human) (UniProt P12318); assay: SPR, Biacore T200
[2] = biological target: human FcγRIIIA soluble ectodomain (ELISA) (human) (UniProt P08637); assay: ELISA, plate-bound human FcgRIIIA soluble ectodomain, absorbance 450 nm against log(conc. ug/ml)
Chain of human FcγRIIIA soluble ectodomain (ELISA) (human) (P08637 17-208): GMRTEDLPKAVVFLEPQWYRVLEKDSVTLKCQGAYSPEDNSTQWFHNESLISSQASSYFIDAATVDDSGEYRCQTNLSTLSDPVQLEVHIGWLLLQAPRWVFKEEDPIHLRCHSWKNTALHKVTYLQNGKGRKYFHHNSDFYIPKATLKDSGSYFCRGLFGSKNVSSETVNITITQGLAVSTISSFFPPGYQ

human FcγRIIB (human) [3] = biological target: human FcγRIIB (human) (UniProt P31994); assay: SPR, Biacore T200
Chain of human FcγRIIB (human) (P31994 43-217): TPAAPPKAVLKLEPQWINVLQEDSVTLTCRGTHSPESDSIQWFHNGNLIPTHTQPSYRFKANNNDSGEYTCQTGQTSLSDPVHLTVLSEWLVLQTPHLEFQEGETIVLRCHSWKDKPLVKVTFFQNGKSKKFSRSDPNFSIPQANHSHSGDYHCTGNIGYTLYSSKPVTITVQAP

human FcγRIIB (human) [4] = biological target: human FcγRIIB (human) (UniProt P31994); assay: ELISA, plate-bound human FcgRIIB soluble ectodomain, absorbance 450 nm against log(conc. ug/ml)
[5] = biological target: recombinant mouse GITR (plate-bound) (mouse) (UniProt O35714); assay: ELISA, plate-bound mouse GITR, delta OD against Log Ab con (ug/ml)
[6] = biological target: recombinant mouse GITR (plate-bound) (mouse) (UniProt O35714); assay: ELISA, plate-bound mGITR, plateau from ˜10-1.5 µg/ml as printed
[7] = biological target: recombinant mouse GITR (plate-bound) (mouse) (UniProt O35714); assay: ELISA, plate-bound mGITR, antibody at ˜10^3 µg/ml as printed
[8] = biological target: human FcγRIIIA soluble ectodomain (ELISA) (human) (UniProt P08637); assay: ELISA, plate-bound human FcgRIIIA (receptor named in the legend paragraph 150, not on the sheet), absorbance 450 nm against log(conc. ug/ml)

Chain of huFcγRIIIA F158 (human) (P08637 17-208 limits assumed): as the sequence (P08637 17-208) above
Chain of recombinant mouse GITR (plate-bound) (mouse) (O35714 20-153 limits assumed): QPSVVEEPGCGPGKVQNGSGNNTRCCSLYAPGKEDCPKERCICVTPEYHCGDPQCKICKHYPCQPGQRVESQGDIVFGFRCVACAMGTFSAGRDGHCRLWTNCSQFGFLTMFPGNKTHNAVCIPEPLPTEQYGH
Chain of huFcγRIIA R131 (human) (P12318 36-218 H167R limits assumed): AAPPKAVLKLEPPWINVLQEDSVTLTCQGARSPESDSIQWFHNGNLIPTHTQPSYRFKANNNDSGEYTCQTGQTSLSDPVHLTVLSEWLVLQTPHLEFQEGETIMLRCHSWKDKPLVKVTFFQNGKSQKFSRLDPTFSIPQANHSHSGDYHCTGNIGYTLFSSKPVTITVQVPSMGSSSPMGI

Substance | EC50 (read off the curve) [1] [µg/mL] | Kd (huFcγRIIIA F158 (human)) [nM] | Kd (huFcγRIIA R131 (human)) [nM] | Kd (human FcγRIIB (human) [3]) [nM] | further results
chimeric anti-mouse GITR antibody (DTA-1 Fab) afucosylated human IgG1 | 0.02 | 580 | 1160 |  | 
chimeric anti-mouse GITR antibody (DTA-1 Fab) human IgG1-N297A | 0.02 |  |  |  | 
chimeric anti-mouse GITR antibody (DTA-1 Fab) human IgG1-GASDALIE | 0.01 | 2230 | 50 | 230 | EC50 (read off the curve) [2]: 0.2 µg/mL; Fold = KD(IgG1)/KD(Fc region variant) (human FcγRIIB (human) [3]): 14 fold; Fold = KD(IgG1)/KD(Fc region variant) (huFcγRIIA R131 (human)): 24.5 fold
chimeric anti-mouse GITR antibody (DTA-1 Fab) human IgG1-V11 | 0.02 |  | 3840 |  | EC50 (read off the curve) (human FcγRIIB (human) [4]): 0.4 µg/mL
chimeric anti-mouse GITR antibody (DTA-1 Fab) human IgG1-GAALIE | 0.02 |  |  |  | 
monospecific mIgG1-N297A anti-mouse GITR antibody (DTA-1 NA) |  |  |  |  | EC50 (read off the curve) [5]: 0.004 µg/mL; OD450 at plateau [6]: 0.9 OD450; OD450 [7]: 0.6 OD450
chimeric anti-mouse GITR antibody (DTA-1 Fab) afucosylated human IgG1-G236A | 0.01 |  |  |  | EC50 (read off the curve) [8]: 0.8 µg/mL
chimeric anti-mouse GITR antibody (DTA-1 Fab) human IgG1-G236A | 0.02 |  | 120 | 4380 | 
chimeric anti-mouse GITR antibody (DTA-1 Fab) with human IgG1 | 0.03 | 6700 | 1160 | 3010 | Fold = KD(IgG1)/KD(Fc region variant) (huFcγRIIIA F158 (human)): 1 fold; Fold = KD(IgG1)/KD(Fc region variant) (huFcγRIIA R131 (human)): 1 fold
